Measurements reported in patent US10245299B2, “Autoassembling peptides for the treatment of pulmonary bulla” (3-D MATRIX, LTD., priority 2014, dated 2019).

Experiments:
Type in all cases: physicochemical
[1] = Gelation of peptide solutions after saline buffer treatment, time sweep; conditions: saline buffer (0.15 M of NaCl); IEIK13 1.5%, KLD12 1.5%, PuraMatrix® 2.5% solution
Procedure: The effect of salt ionic strength level surrounding peptide solution on the properties of peptide solutions was evaluated to identify the possibility of peptide gelation when the peptide solution is placed into the environment where salt ionic strength level is high. […] Without pH effect, the effect of saline treatment on gelation of peptide solutions were evaluated. […] This is because IEIK13 is much more sensitive to salt ionic strength levels. Fast gelation of IEIK13 at the salt ionic strength level similar to body fluid isotonic salt level may generally improve its function and gelation speed for various clinical applications. The results are shown in FIG. 19 for IEIK13, KLD12 and PuraMatrix® solutions. Time sweep tests were performed at 1 rad/sec and at 1 Pa with 20 mm plates and 500 μm gap distance. […]

[2] = Appearance of 1.5% peptide solutions with various salts at room temperature; conditions: for Appearance: room temperature
Procedure: The effect of salt ionic strength level on the properties of peptide solutions was evaluated to identify optimized salt ionic strength levels for the peptides as described herein. Increasing the salt ionic strength level of PuraMatrix® and other peptides may generally improve its function and mechanical strength for various clinical applications. To adjust the salt ionic strength of the peptide solutions by way of example, various salt buffer solutions including NaCl, KCl, MgCl2, CaCl2 and DPBS (10×) were added to 2 mL of 1.5% peptide solutions.

[3] = Rheological properties of pH adjusted peptide solutions and hydrogels; conditions: KLD12 1%, IEIK13 1%, PuraMatrix® 1% and 2.5%
Procedure: Based on the visual observation of the effect of pH level on the properties of the peptide solutions, the effect on the rheological properties of the peptide solutions after adjusting their pH level to 3.4 (PuraMatrix® and KLD12) or 3.7 (IEIK13) was evaluated. If the pH levels of peptide solutions are higher than 3.5 (PuraMatrix® and KLD12) or 3.7 (IEIK13), the peptide solution began phase separation becoming cloudy. The rheological properties of PuraMatrix®, KLD12 and IEIK13 solutions were higher at pH 3.4. The results are shown in FIG. 2 for KLD12 1%, FIG. 3 for IEIK13 1%, and FIGS. 4-5 for PuraMatrix® 1% and 2.5%, respectively. Stress sweep tests were performed at 10 rad/s. Frequency sweep tests were performed at 1 Pa.
Based on the results of the effect on the rheological properties of the peptide solutions after adjusting their pH level to 3.4 (PuraMatrix® and KLD12) or 3.7 (IEIK13), the effect on the rheological properties of the peptide solutions at various pH levels was evaluated. […] The rheological properties of peptides were evaluated at various concentrations using a rheometer (DHR-1, TA Instruments) with 20 mm plates. The results are shown in FIG. 6A for PuraMatrix® 2.5% solution and FIG. 6B for IEIK13 1.5% solution, respectively. Frequency sweep tests were performed from 1 rad/sec to 10 rad/sec at 1 Pa and the storage modulus at 1 rad/sec was selected for data.
Based on the results of the effect on the rheological properties of the peptide solutions after adjusting their pH level, the effect on the rheological properties of the peptide hydrogels at various pH after DMEM treatment was evaluated and compared to the effect on the rheological properties of the peptide solutions at various pH before DMEM treatment. […] The results are shown in FIGS. 7A-7B for PuraMatrix® and FIGS. 8A-8B for IEIK (SEQ ID NO: 5), respectively. Frequency sweep tests were performed from 1 rad/sec to 10 rad/sec at 1 Pa and the storage modulus at 1 rad/sec was selected for data.

[4] = pH and appearance of 2.5% peptide solutions after adding 0.1 N NaOH
Procedure: To adjust the pH level of the peptide solutions by way of example, 0.1 N NaOH was added to 2 mL of 2.5% peptide solutions and their pH and appearance were measured.

## Arg-Ala-Asp-Ala-Arg-Ala-Asp-Ala-Arg-Ala-Asp-Ala-Arg-Ala-Asp-Ala [PuraMatrix®]
[1]
  gelation after saline buffer treatment: no or negligible gelation
[2]; PuraMatrix ® 0.5%, DPBS (pH 3.2) 1.0 M, ionic strength 1.0 M
  Appearance: Cloudy, phase-separated
[2]; PuraMatrix ® 0.55%, DPBS (pH 3.2) 0.95 M, ionic strength 0.95 M
  Appearance: Slightly cloudy, brittle gel
[2]; PuraMatrix ® 0.6%, DPBS (pH 3.2) 0.9 M, ionic strength 0.9 M
  Appearance: Clear, thick, stiffer gel
[2]; PuraMatrix ® 0.75%, DPBS (pH 3.2) 0.75 M, ionic strength 0.75 M
  Appearance: Clear, thick, stiffer gel
[2]; PuraMatrix ® 0.9%, DPBS (pH 3.2) 0.6 M, ionic strength 0.6 M
  Appearance: Clear, thick, stiffer gel
[2]; PuraMatrix ® 0.93%, KCl 1.15 M, ionic strength 1.15 M
  Appearance: Cloudy, phase-separated
[2]; PuraMatrix ® 0.95%, KCl 1.1 M, ionic strength 1.1 M
  Appearance: Slightly cloudy, brittle gel
[2]; PuraMatrix ® 0.98%, KCl 1.05 M, ionic strength 1.05 M
  Appearance: Slightly cloudy, thick, stiffer gel
[2]; PuraMatrix ® 1.0%, KCl 1.0 M, ionic strength 1.0 M
  Appearance: Clear, thick, stiffer gel
[2]; PuraMatrix ® 1.0%, NaCl 1.0 M, ionic strength 1.0 M
  Appearance: Cloudy, phase-separated
[2]; PuraMatrix ® 1.03%, KCl 0.95 M, ionic strength 0.95 M
  Appearance: Clear, thick, stiffer gel
[2]; PuraMatrix ® 1.03%, NaCl 0.95 M, ionic strength 0.95 M
  Appearance: Cloudy, phase-separated
[2]; PuraMatrix ® 1.05%, DPBS (pH 3.2) 0.45 M, ionic strength 0.45 M
  Appearance: Clear, thick, stiffer gel
[2]; PuraMatrix ® 1.05%, KCl 0.9 M, ionic strength 0.9 M
  Appearance: Clear, thick, stiffer gel
[2]; PuraMatrix ® 1.05%, NaCl 0.9 M, ionic strength 0.9 M
  Appearance: Slightly cloudy, brittle gel
[2]; PuraMatrix ® 1.08%, NaCl 0.85 M, ionic strength 0.85 M
  Appearance: Clear, thick, stiffer gel
[2]; PuraMatrix ® 1.10%, NaCl 0.8 M, ionic strength 0.8 M
  Appearance: Clear, thick, stiffer gel
[2]; PuraMatrix ® 1.13%, KCl 0.75 M, ionic strength 0.75 M
  Appearance: Clear, thick, stiffer gel
[2]; PuraMatrix ® 1.13%, NaCl 0.75 M, ionic strength 0.75 M
  Appearance: Clear, thick, stiffer gel
[2]; PuraMatrix ® 1.2%, DPBS (pH 3.2) 0.3 M, ionic strength 0.3 M
  Appearance: Clear, thick, stiffer gel
[2]; PuraMatrix ® 1.2%, KCl 0.6 M, ionic strength 0.6 M
  Appearance: Clear, thick, stiffer gel
[2]; PuraMatrix ® 1.2%, NaCl 0.6 M, ionic strength 0.6 M
  Appearance: Clear, thick, stiffer gel
[2]; PuraMatrix ® 1.27%, KCl 0.45 M, ionic strength 0.45 M
  Appearance: Clear, thick, stiffer gel
[2]; PuraMatrix ® 1.27%, NaCl 0.45 M, ionic strength 0.45 M
  Appearance: Clear, thick, stiffer gel
[2]; PuraMatrix ® 1.28%, CaCl2 0.433 M, ionic strength 1.3 M
  Appearance: Cloudy, phase-separated
[2]; PuraMatrix ® 1.28%, MgCl2 0.433 M, ionic strength 1.3 M
  Appearance: Cloudy, phase-separated
[2]; PuraMatrix ® 1.29%, CaCl2 0.417 M, ionic strength 1.25 M
  Appearance: Slightly cloudy, brittle gel
[2]; PuraMatrix ® 1.29%, MgCl2 0.417 M, ionic strength 1.25 M
  Appearance: Slightly cloudy, brittle gel
[2]; PuraMatrix ® 1.3%, CaCl2 0.4 M, ionic strength 1.2 M
  Appearance: Slightly cloudy, thick, stiffer gel
[2]; PuraMatrix ® 1.3%, MgCl2 0.4 M, ionic strength 1.2 M
  Appearance: Slightly cloudy, thick, stiffer gel
[2]; PuraMatrix ® 1.31%, CaCl2 0.383 M, ionic strength 1.15 M
  Appearance: Clear, thick, stiffer gel
[2]; PuraMatrix ® 1.31%, MgCl2 0.383 M, ionic strength 1.15 M
  Appearance: Clear, thick, stiffer gel
[2]; PuraMatrix ® 1.32%, CaCl2 0.35 M, ionic strength 1.05 M
  Appearance: Clear, thick, stiffer gel
[2]; PuraMatrix ® 1.32%, MgCl2 0.35 M, ionic strength 1.05 M
  Appearance: Clear, thick, stiffer gel
[2]; PuraMatrix ® 1.35%, CaCl2 0.3 M, ionic strength 0.9 M
  Appearance: Clear, thick, stiffer gel
[2]; PuraMatrix ® 1.35%, DPBS (pH 3.2) 0.15 M, ionic strength 0.15 M
  Appearance: Clear, thick, stiffer gel
[2]; PuraMatrix ® 1.35%, KCl 0.3 M, ionic strength 0.3 M
  Appearance: Clear, thick, stiffer gel
[2]; PuraMatrix ® 1.35%, MgCl2 0.3 M, ionic strength 0.9 M
  Appearance: Clear, thick, stiffer gel
[2]; PuraMatrix ® 1.35%, NaCl 0.3 M, ionic strength 0.3 M
  Appearance: Clear, thick, stiffer gel
[2]; PuraMatrix ® 1.38%, CaCl2 0.25 M, ionic strength 0.75 M
  Appearance: Clear, thick, stiffer gel
[2]; PuraMatrix ® 1.38%, MgCl2 0.25 M, ionic strength 0.75 M
  Appearance: Clear, thick, stiffer gel
[2]; PuraMatrix ® 1.4%, CaCl2 0.2 M, ionic strength 0.6 M
  Appearance: Clear, thick, stiffer gel
[2]; PuraMatrix ® 1.4%, MgCl2 0.2 M, ionic strength 0.6 M
  Appearance: Clear, thick, stiffer gel
[2]; PuraMatrix ® 1.43%, CaCl2 0.15 M, ionic strength 0.45 M
  Appearance: Clear, thick, stiffer gel
[2]; PuraMatrix ® 1.43%, KCl 0.15 M, ionic strength 0.15 M
  Appearance: Clear, thick, stiffer gel
[2]; PuraMatrix ® 1.43%, MgCl2 0.15 M, ionic strength 0.45 M
  Appearance: Clear, thick, stiffer gel
[2]; PuraMatrix ® 1.43%, NaCl 0.15 M, ionic strength 0.15 M
  Appearance: Clear, thick, stiffer gel
[2]; PuraMatrix ® 1.45%, CaCl2 0.1 M, ionic strength 0.3 M
  Appearance: Clear, thick, stiffer gel
[2]; PuraMatrix ® 1.45%, MgCl2 0.1 M, ionic strength 0.3 M
  Appearance: Clear, thick, stiffer gel
[2]; PuraMatrix ® 1.48%, CaCl2 0.05 M, ionic strength 0.15 M
  Appearance: Clear, thick, stiffer gel
[2]; PuraMatrix ® 1.48%, MgCl2 0.05 M, ionic strength 0.15 M
  Appearance: Clear, thick, stiffer gel
[2]; PuraMatrix ® 1.5%, CaCl2 0 M, ionic strength 0 M
  Appearance: Clear, thick gel
[2]; PuraMatrix ® 1.5%, DPBS (pH 3.2) 0 M, ionic strength 0 M
  Appearance: Clear, thick gel
[2]; PuraMatrix ® 1.5%, KCl 0 M, ionic strength 0 M
  Appearance: Clear, thick gel
[2]; PuraMatrix ® 1.5%, MgCl2 0 M, ionic strength 0 M
  Appearance: Clear, thick gel
[2]; PuraMatrix ® 1.5%, NaCl 0 M, ionic strength 0 M
  Appearance: Clear, thick gel
[2]; depending on different salts, 1.5% peptide solutions
  salt ionic strength increase that did not change the clear color of the solution (apparent stiffness increased): 0.85˜1.15 M
[3]
  rheological properties of solutions at pH 3.4: higher
[4]; 0.1N NaOH 0 μL/mL, conc. 2.5%, pH 2.2
  Appearance: Clear, thick gel
[4]; 0.1N NaOH 50 μL/mL, conc. 2.38%, pH 2.3
  Appearance: Clear, thick gel
[4]; 0.1N NaOH 100 μL/mL, conc. 2.27%, pH 2.4
  Appearance: Clear, thick gel
[4]; 0.1N NaOH 150 μL/mL, conc. 2.17%, pH 2.7
  Appearance: Clear, thick,
[4]; 0.1N NaOH 200 μL/mL, conc. 2.08%, pH 2.9
  Appearance: Clear, thick,
[4]; 0.1N NaOH 250 μL/mL, conc. 2.0%, pH 3.2
  Appearance: Clear, thick,
[4]; 0.1N NaOH 275 μL/mL, conc. 1.96%, pH 3.4
  Appearance: Clear, thick,
[4]; 0.1N NaOH 300 μL/mL, conc. 1.92%, pH 3.6
  Appearance: Slightly cloudy,
[4]; 0.1N NaOH 350 μL/mL, conc. 1.85%, pH 4.5
  Appearance: Cloudy, phase-
[4]; 0.1N NaOH added in 2.5% solution 0 μL/mL, conc. 2.5%
  Peptide solution pH: 2.2
[4]; 0.1N NaOH added in 2.5% solution 50 μL/mL, conc. 2.38%
  Peptide solution pH: 2.3
[4]; 0.1N NaOH added in 2.5% solution 100 μL/mL, conc. 2.27%
  Peptide solution pH: 2.4
[4]; 0.1N NaOH added in 2.5% solution 150 μL/mL, conc. 2.17%
  Peptide solution pH: 2.7
[4]; 0.1N NaOH added in 2.5% solution 200 μL/mL, conc. 2.08%
  Peptide solution pH: 2.9
[4]; 0.1N NaOH added in 2.5% solution 250 μL/mL, conc. 2.0%
  Peptide solution pH: 3.2
[4]; 0.1N NaOH added in 2.5% solution 275 μL/mL, conc. 1.96%
  Peptide solution pH: 3.4
[4]; 0.1N NaOH added in 2.5% solution 300 μL/mL, conc. 1.92%
  Peptide solution pH: 3.6
[4]; 0.1N NaOH added in 2.5% solution 350 μL/mL, conc. 1.85%
  Peptide solution pH: 4.5
[4]; pH 7.0
  Appearance: Cloudy, phase-
